Measurements reported in patent US20160106861A1, “AXL ANTIBODY-DRUG CONJUGATE AND ITS USE FOR THE TREATMENT OF CANCER” (PIERRE FABRE MEDICAMENT, priority 2013, published 2016).

Experiments:
[1] = biological target: T1, recombinant human Axl-Fc (R and D Systems, cat N° 154AL/CF) (human, UniProt P30530 26-451); assay: ELISA on coated rhAxl-Fc
T1 construct: Bought protein; also called rhAxl-Fc; rh Axl-Fc protein; not shown: Fc of human IgG (coating control with anti-human IgG Fc)
T1 sequence: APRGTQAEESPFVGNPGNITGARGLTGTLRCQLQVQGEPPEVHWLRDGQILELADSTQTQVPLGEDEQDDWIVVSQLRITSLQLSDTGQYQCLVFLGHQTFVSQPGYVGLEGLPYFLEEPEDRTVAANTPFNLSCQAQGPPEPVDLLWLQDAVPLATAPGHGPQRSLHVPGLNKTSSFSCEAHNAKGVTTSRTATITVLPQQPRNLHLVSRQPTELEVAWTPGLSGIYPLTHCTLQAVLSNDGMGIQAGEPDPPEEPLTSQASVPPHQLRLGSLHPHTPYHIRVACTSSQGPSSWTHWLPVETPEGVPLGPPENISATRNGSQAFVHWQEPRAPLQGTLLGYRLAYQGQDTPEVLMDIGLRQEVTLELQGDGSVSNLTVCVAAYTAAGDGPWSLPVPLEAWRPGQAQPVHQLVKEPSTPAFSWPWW

rhAxl-Fc protein = biological target: T2, rhAxl-Fc protein (Homo sapiens, UniProt P30530); assay: ELISA binding on immobilized rhAxl-Fc protein; settings: starting concentration 5 μg/ml, 1/2 serial dilutions
T2 construct: purchased R and D Systems 154AL/CF
T2 sequence (P30530 26-451 limits assumed): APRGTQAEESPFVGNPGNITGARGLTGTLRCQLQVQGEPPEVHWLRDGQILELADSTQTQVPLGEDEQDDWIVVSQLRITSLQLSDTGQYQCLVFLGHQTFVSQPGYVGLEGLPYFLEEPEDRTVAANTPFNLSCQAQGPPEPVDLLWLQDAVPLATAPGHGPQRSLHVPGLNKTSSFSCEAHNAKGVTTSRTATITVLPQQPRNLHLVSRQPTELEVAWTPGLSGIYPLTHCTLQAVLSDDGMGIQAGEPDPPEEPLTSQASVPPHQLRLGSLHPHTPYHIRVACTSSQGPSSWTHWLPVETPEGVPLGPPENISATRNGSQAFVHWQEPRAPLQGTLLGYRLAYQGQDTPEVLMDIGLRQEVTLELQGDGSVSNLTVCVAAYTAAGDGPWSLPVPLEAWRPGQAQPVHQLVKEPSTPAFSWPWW
Protocol: (§1) Briefly, the recombinant human Axl-Fc (R and D systems, cat N° 154AL/CF), rhDtk (R and D Systems, cat N° 859-DK) or rhMer-Fc (R and D Systems, cat N° 891-MR) proteins were coated overnight at 4° C. to Immulon II 96-well plates and, after a 1 h blocking step with a 0.5% gelatine solution, 1613F12 was added for an additional 1 h at 37° C. at starting concentration of 5 μg/ml (3.33 10^−8M). Then ½ serial dilutions were done over 12 columns. Plates were washed and a goat anti-mouse (Jackson) specific IgG-HRP was added for 1 h at 37° C. Reaction development was performed using the TMB substrate solution. The isotype control antibody mIgG1 and the commercial anti-Axl Mab 154 antibody were also used in parallel. Coating controls were performed in presence of a goat anti-human IgG Fc polyclonal serum labelled with HRP (Jackson, ref 109-035-098) and/or in presence of a HRP-coupled anti-Histidine antibody (R and D Systems, ref: MAB050H).

rhDtk-Fc = biological target: T3, rhDtk-Fc (Homo sapiens, UniProt Q06418); assay: ELISA binding on immobilized rhDtk-Fc protein; settings: starting concentration 5 μg/ml, 1/2 serial dilutions
T3 construct: purchased R and D Systems 859-DK
T3 sequence (Q06418 with tags, fused parts or gaps limits assumed): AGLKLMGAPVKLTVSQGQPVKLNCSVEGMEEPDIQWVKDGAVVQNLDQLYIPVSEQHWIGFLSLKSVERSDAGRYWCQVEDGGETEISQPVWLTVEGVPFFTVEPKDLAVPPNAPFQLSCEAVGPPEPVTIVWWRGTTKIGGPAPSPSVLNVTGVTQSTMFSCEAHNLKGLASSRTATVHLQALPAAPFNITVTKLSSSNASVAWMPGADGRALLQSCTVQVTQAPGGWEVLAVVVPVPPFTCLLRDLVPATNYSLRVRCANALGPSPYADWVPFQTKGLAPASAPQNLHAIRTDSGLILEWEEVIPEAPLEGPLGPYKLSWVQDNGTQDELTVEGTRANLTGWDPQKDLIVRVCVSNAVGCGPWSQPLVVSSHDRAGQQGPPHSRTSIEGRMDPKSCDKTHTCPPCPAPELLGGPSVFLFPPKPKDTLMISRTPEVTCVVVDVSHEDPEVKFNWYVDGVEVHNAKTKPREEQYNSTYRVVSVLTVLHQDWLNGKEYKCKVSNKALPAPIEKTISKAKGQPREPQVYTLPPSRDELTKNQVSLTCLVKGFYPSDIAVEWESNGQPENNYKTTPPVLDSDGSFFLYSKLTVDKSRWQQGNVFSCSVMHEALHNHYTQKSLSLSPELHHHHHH
Protocol: as §1

rhMer-Fc = biological target: T4, rhMer-Fc (Homo sapiens, UniProt Q12866); assay: ELISA binding on immobilized rhMer-Fc protein; settings: starting concentration 5 μg/ml, 1/2 serial dilutions
T4 construct: purchased R and D Systems 891-MR
T4 sequence (Q12866 with tags, fused parts or gaps limits assumed): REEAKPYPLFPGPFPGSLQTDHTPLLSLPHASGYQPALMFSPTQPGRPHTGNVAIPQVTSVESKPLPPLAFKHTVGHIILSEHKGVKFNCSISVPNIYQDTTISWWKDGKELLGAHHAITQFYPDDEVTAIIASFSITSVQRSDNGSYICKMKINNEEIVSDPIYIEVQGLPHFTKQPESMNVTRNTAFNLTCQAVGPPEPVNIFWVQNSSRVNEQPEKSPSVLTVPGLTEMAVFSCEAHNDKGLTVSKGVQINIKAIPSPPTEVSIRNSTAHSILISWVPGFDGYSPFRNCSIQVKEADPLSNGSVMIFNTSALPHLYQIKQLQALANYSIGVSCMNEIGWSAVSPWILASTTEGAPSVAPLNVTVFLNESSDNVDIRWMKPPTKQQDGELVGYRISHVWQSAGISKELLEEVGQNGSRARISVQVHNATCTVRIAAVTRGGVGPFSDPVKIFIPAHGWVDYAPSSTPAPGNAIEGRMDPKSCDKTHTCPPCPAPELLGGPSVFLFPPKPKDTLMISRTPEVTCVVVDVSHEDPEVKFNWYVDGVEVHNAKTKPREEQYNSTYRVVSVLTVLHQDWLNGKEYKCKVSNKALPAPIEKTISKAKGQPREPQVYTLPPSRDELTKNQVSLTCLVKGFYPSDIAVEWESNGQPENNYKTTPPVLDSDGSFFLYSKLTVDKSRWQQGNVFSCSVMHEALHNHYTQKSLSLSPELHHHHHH
Protocol: as §1

membrane Axl receptor = biological target: T5, membrane Axl receptor (Homo sapiens, UniProt P30530); assay: FACS binding on human tumor cells; settings: various human tumor cells
T5 construct: endogenous in cells; host or cells: human tumor cell lines SN12C, Calu-1, MDA-MB435S, MDA-MB231, NCI-H125, MCF7 (Axl-negative), Panc1
T5 sequence (P30530 26-894): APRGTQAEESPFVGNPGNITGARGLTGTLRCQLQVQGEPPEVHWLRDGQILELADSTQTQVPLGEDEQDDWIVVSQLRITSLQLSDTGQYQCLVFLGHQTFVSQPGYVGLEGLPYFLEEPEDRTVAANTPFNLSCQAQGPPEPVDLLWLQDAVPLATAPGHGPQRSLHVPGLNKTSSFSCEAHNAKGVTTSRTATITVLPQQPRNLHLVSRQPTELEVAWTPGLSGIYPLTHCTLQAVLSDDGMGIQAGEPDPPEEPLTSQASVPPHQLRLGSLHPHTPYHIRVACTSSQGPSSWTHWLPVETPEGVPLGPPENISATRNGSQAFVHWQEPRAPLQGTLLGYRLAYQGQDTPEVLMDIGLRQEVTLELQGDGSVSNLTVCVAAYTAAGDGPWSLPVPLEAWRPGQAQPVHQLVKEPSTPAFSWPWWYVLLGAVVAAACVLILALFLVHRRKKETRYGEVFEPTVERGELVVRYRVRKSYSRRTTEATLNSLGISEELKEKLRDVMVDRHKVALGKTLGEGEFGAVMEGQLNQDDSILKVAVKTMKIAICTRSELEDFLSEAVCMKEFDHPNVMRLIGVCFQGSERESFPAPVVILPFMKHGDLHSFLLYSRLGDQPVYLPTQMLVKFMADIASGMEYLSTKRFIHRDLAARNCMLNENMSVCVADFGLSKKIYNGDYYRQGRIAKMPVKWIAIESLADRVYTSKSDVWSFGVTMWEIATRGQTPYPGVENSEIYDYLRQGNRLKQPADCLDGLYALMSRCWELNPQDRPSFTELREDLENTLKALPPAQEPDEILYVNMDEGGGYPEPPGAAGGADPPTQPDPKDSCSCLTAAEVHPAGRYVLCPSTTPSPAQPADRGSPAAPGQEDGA
Protocol: For cell surface binding studies, two fold serial dilutions of a 10 μg/ml (6.66 10^−8 M) primary antibody solution (1613F12, MAB154 or mIgG1 isotype control 9G4 Mab) are prepared and are applied on 2·10^5 cells for 20 min at 4° C. After 3 washes in phosphate-buffered saline (PBS) supplemented with 1% BSA and 0.01% NaN3, cells were incubated with secondary antibody Goat anti-mouse Alexa 488 ( 1/500° dilution) for 20 minutes at 4° C. After 3 additional washes in PBS supplemented with 1% BSA and […], cells were analyzed by FACS (Facscalibur, Becton-Dickinson). At least 5000 cells were assessed to calculate the mean value of fluorescence intensity.
1613F12 dose response curves were prepared. MFIs obtained using the various human tumor cells were then analysed with Prism software.

B1: m1613F12 (murine 1613F12, hybridoma CNCM I-4505) (antibody, V domains shown)
VH: EVHLQQSGAELVKPGASVKLSCTASGFNIRDTYIHWVKQRPEQGLEWIGRLDPANGHTKYGPNFQGRATMTSDTSSNTAYLQLSSLTSEDTAVYYCARGAYYYGSSGLFYFDYWGQGTTLSVSS
VL: DVQITQSPSYLATSPGETITINCRASKSISKYLAWYQEKPGKTNKLLIYSGSTLQSGVPSRFSGSGSGTDFTLTISSLEPEDFAMYFCQQHHEYPLTFGAGTELELK
notes: Murine monoclonal antibody; also called Axl antibody
Q: What does the source list for B1?
A: binding result [1]: binds; binding on rhAxl-Fc protein (ELISA) (rhAxl-Fc protein): only binds to the rhAxl-Fc protein; binding on rhDtk (ELISA) (rhDtk-Fc): does not bind; binding on rhMer (ELISA) (rhMer-Fc): does not bind; binding to membrane Axl receptor on human tumor cells (FACS, saturation curves) (membrane Axl receptor): binds specifically to the membrane Axl receptor
